Drawing on patent US20150344570A1 (published 2015), this text covers He/Con_3a for 47 molecules.

The target in the assay is FcγRIIIa extracellular domain with C-terminal His tag (human, UniProt P08637 17-208). Briefly: SPR (Biacore), one H chain altered; HeCon Ab GpH7-A5/GpH7-B3/GpL16-k0 = 100.
Sequence of FcγRIIIa extracellular domain with C-terminal His tag (P08637 17-208): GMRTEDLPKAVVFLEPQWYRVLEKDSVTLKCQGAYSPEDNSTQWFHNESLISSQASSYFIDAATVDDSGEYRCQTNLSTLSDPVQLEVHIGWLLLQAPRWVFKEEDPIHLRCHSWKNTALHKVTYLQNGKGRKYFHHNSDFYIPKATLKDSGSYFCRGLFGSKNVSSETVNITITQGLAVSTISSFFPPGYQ

B1: GpH7-A5/GpH7-B3 variant E333_04F/GpL16-k0 (antibody, human IgG1, kappa)
heavy 1: not shown
heavy 2: not shown
light: DIVMTQSPLSLPVTPGEPASISCQASESLVHSNRNTYLHWYLQKPGQSPQLLIYKVSNRFSGVPDRFSGSGSGTDFTLKISRVEAEDVGVYYCSQNTHVPPTFGQGTKVEIERTVAAPSVFIFPPSDEQLKSGTASVVCLLNNFYPREAKVQWKVDNALQSGNSQESVTEQDSKDSTYSLSSTLTLSKADYEKHKVYACEVTHQGLSSPVTKSFNRGEC
notes: one H chain altered; also called He Ab E333_04F
B1 displayed a He/Con_3a of 101%.

B2: GpH7-A5/GpH7-B3 variant G236_15Y/GpL16-k0 (antibody, human IgG1, kappa)
heavy 1: not shown
heavy 2: not shown
light: B1 light
notes: one H chain altered; also called He Ab G236_15Y
The molecule B2 registered a He/Con_3a of 121%.

B3: GpH7-A5/GpH7-B3 variant H268_18N/GpL16-k0 (antibody, human IgG1, kappa)
heavy 1: not shown
heavy 2: not shown
light: B1 light
notes: one H chain altered; also called He Ab H268_18N
For B3, the He/Con_3a is 104%.

B4: GpH7-A5/GpH7-B3 variant L234_04F/GpL16-k0 (antibody, human IgG1, kappa)
heavy 1: not shown
heavy 2: not shown
light: B1 light
notes: one H chain altered; also called He Ab L234_04F
B4 came in with a He/Con_3a of 118%.

B5: GpH7-A5/GpH7-B3 variant S337_14T/GpL16-k0 (antibody, human IgG1, kappa)
heavy 1: not shown
heavy 2: not shown
light: B1 light
notes: one H chain altered; also called He Ab S337_14T
B5 returned a He/Con_3a of 101%.

B6: GpH7-A5/GpH7-B3 variant I336_08L/GpL16-k0 (antibody, human IgG1, kappa)
heavy 1: not shown
heavy 2: not shown
light: B1 light
notes: one H chain altered; also called He Ab I336_08L
B6 had a He/Con_3a of 106%.

B7: GpH7-A5/GpH7-B3 variant S324_02A/GpL16-k0 (antibody, human IgG1, kappa)
heavy 1: not shown
heavy 2: not shown
light: B1 light
notes: one H chain altered; also called He Ab S324_02A
Molecule B7 showed a He/Con_3a of 104%.

B8: GpH7-A5/GpH7-B3 variant S337_20W/GpL16-k0 (antibody, human IgG1, kappa)
heavy 1: not shown
heavy 2: not shown
light: B1 light
notes: one H chain altered; also called He Ab S337_20W
Turning to B8, the He/Con_3a worked out at 101%.

B9: GpH7-A5/GpH7-B3 variant K334_09D/GpL16-k0 (antibody, human IgG1, kappa)
heavy 1: not shown
heavy 2: not shown
light: B1 light
notes: one H chain altered; also called He Ab K334_09D
As for B9, the He/Con_3a came to 160%.

B10: GpH7-A5/GpH7-B3 variant S337_09D/GpL16-k0 (antibody, human IgG1, kappa)
heavy 1: not shown
heavy 2: not shown
light: B1 light
notes: one H chain altered; also called He Ab S337_09D
Molecule B10 yielded a He/Con_3a of 110%.

B11: GpH7-A5/GpH7-B3 variant I336_02A/GpL16-k0 (antibody, human IgG1, kappa)
heavy 1: not shown
heavy 2: not shown
light: B1 light
notes: one H chain altered; also called He Ab I336_02A
B11: the He/Con_3a came out at 111%.

B12: GpH7-A5/GpH7-B3 variant S324_15Y/GpL16-k0 (antibody, human IgG1, kappa)
heavy 1: not shown
heavy 2: not shown
light: B1 light
notes: one H chain altered; also called He Ab S324_15Y
As to B12, the He/Con_3a amounted to 101%.

B13: GpH7-A5/GpH7-B3 variant I336_03V/GpL16-k0 (antibody, human IgG1, kappa)
heavy 1: not shown
heavy 2: not shown
light: B1 light
notes: one H chain altered; also called He Ab I336_03V
In the case of B13, the He/Con_3a was 112%.

B14: GpH7-A5/GpH7-B3 variant V266_08L/GpL16-k0 (antibody, human IgG1, kappa)
heavy 1: not shown
heavy 2: not shown
light: B1 light
notes: one H chain altered; also called He Ab V266_08L
In the case of B14, the He/Con_3a came to 118%.

B15: GpH7-A5/GpH7-B3 variant P238_09D/GpL16-k0 (antibody, human IgG1, kappa)
heavy 1: not shown
heavy 2: not shown
light: B1 light
notes: one H chain altered; also called He Ab P238_09D
Consider B15, for which the He/Con_3a was 106%.

B16: GpH7-A5/GpH7-B3 variant S337_04F/GpL16-k0 (antibody, human IgG1, kappa)
heavy 1: not shown
heavy 2: not shown
light: B1 light
notes: one H chain altered; also called He Ab S337_04F
The molecule B16 came in with a He/Con_3a of 101%.

B17: GpH7-A5/GpH7-B3 variant H268_02A/GpL16-k0 (antibody, human IgG1, kappa)
heavy 1: not shown
heavy 2: not shown
light: B1 light
notes: one H chain altered; also called He Ab H268_02A
Consider B17, for which the He/Con_3a was 122%.

B18: GpH7-A5/GpH7-B3 variant T335_20W/GpL16-k0 (antibody, human IgG1, kappa)
heavy 1: not shown
heavy 2: not shown
light: B1 light
notes: one H chain altered; also called He Ab T335_20W
In turn, B18 yielded a He/Con_3a of 102%.

B19: GpH7-A5/GpH7-B3 variant I336_18N/GpL16-k0 (antibody, human IgG1, kappa)
heavy 1: not shown
heavy 2: not shown
light: B1 light
notes: one H chain altered; also called He Ab I336_18N
B19 displayed a He/Con_3a of 104%.

B20: GpH7-A5/GpH7-B3 variant E333_13S/GpL16-k0 (antibody, human IgG1, kappa)
heavy 1: not shown
heavy 2: not shown
light: B1 light
notes: one H chain altered; also called He Ab E333_13S
The molecule B20 gave a He/Con_3a of 103%.

B21: GpH7-A5/GpH7-B3 variant I332_06M/GpL16-k0 (antibody, human IgG1, kappa)
heavy 1: not shown
heavy 2: not shown
light: B1 light
notes: one H chain altered; also called He Ab I332_06M
For the molecule B21, the He/Con_3a is 101%.

B22: GpH7-A5/GpH7-B3 variant S267_02A/GpL16-k0 (antibody, human IgG1, kappa)
heavy 1: not shown
heavy 2: not shown
light: B1 light
notes: one H chain altered; also called He Ab S267_02A
Consider B22, for which the He/Con_3a worked out at 150%.

B23: GpH7-A5/GpH7-B3 variant K326_08L/GpL16-k0 (antibody, human IgG1, kappa)
heavy 1: not shown
heavy 2: not shown
light: B1 light
notes: one H chain altered; also called He Ab K326_08L
For B23, the He/Con_3a is 114%.

B24: GpH7-A5/GpH7-B3 variant T335_16H/GpL16-k0 (antibody, human IgG1, kappa)
heavy 1: not shown
heavy 2: not shown
light: B1 light
notes: one H chain altered; also called He Ab T335_16H
In turn, B24 gave a He/Con_3a of 104%.

B25: GpH7-A5/GpH7-B3 variant T335_13S/GpL16-k0 (antibody, human IgG1, kappa)
heavy 1: not shown
heavy 2: not shown
light: B1 light
notes: one H chain altered; also called He Ab T335_13S
As to B25, the He/Con_3a worked out at 105%.

B26: GpH7-A5/GpH7-B3 variant T335_19Q/GpL16-k0 (antibody, human IgG1, kappa)
heavy 1: not shown
heavy 2: not shown
light: B1 light
notes: one H chain altered; also called He Ab T335_19Q
Turning to B26, the He/Con_3a worked out at 102%.

B27: GpH7-A5/GpH7-B3 variant S337_15Y/GpL16-k0 (antibody, human IgG1, kappa)
heavy 1: not shown
heavy 2: not shown
light: B1 light
notes: one H chain altered; also called He Ab S337_15Y
In the case of B27, the He/Con_3a came out at 102%.

B28: GpH7-A5/GpH7-B3 variant Q295_14T/GpL16-k0 (antibody, human IgG1, kappa)
heavy 1: not shown
heavy 2: not shown
light: B1 light
notes: one H chain altered; also called He Ab Q295_14T
As to B28, the He/Con_3a was determined as 115%.

B29: GpH7-A5/GpH7-B3 variant I332_01G/GpL16-k0 (antibody, human IgG1, kappa)
heavy 1: not shown
heavy 2: not shown
light: B1 light
notes: one H chain altered; also called He Ab I332_01G
The molecule B29 showed a He/Con_3a of 111%.

B30: GpH7-A5/GpH7-B3 variant S337_10E/GpL16-k0 (antibody, human IgG1, kappa)
heavy 1: not shown
heavy 2: not shown
light: B1 light
notes: one H chain altered; also called He Ab S337_10E
In turn, B30 returned a He/Con_3a of 105%.

B31: GpH7-A5/GpH7-B3 variant K334_01G/GpL16-k0 (antibody, human IgG1, kappa)
heavy 1: not shown
heavy 2: not shown
light: B1 light
notes: one H chain altered; also called He Ab K334_01G
B31 showed a He/Con_3a of 121%.

B32: GpH7-A5/GpH7-B3 variant L234_07I/GpL16-k0 (antibody, human IgG1, kappa)
heavy 1: not shown
heavy 2: not shown
light: B1 light
notes: one H chain altered; also called He Ab L234_07I
B32 came in with a He/Con_3a of 103%.

B33: GpH7-A5/GpH7-B3 variant T335_10E/GpL16-k0 (antibody, human IgG1, kappa)
heavy 1: not shown
heavy 2: not shown
light: B1 light
notes: one H chain altered; also called He Ab T335_10E
B33 had a He/Con_3a of 107%.

B34: GpH7-A5/GpH7-B3 variant T335_15Y/GpL16-k0 (antibody, human IgG1, kappa)
heavy 1: not shown
heavy 2: not shown
light: B1 light
notes: one H chain altered; also called He Ab T335_15Y
As for B34, the He/Con_3a was determined as 104%.

B35: GpH7-A5/GpH7-B3 variant I336_06M/GpL16-k0 (antibody, human IgG1, kappa)
heavy 1: not shown
heavy 2: not shown
light: B1 light
notes: one H chain altered; also called He Ab I336_06M
As to B35, the He/Con_3a came out at 109%.

B36: GpH7-A5/GpH7-B3 variant P238_10E/GpL16-k0 (antibody, human IgG1, kappa)
heavy 1: not shown
heavy 2: not shown
light: B1 light
notes: one H chain altered; also called He Ab P238_10E
In turn, B36 gave a He/Con_3a of 105%.

B37: GpH7-A5/GpH7-B3 variant E333_20W/GpL16-k0 (antibody, human IgG1, kappa)
heavy 1: not shown
heavy 2: not shown
light: B1 light
notes: one H chain altered; also called He Ab E333_20W
Take B37: the He/Con_3a was determined as 101%.

B38: GpH7-A5/GpH7-B3 variant T335_07I/GpL16-k0 (antibody, human IgG1, kappa)
heavy 1: not shown
heavy 2: not shown
light: B1 light
notes: one H chain altered; also called He Ab T335_07I
In turn, B38 showed a He/Con_3a of 107%.

B39: GpH7-A5/GpH7-B3 variant P271_01G/GpL16-k0 (antibody, human IgG1, kappa)
heavy 1: not shown
heavy 2: not shown
light: B1 light
notes: one H chain altered; also called He Ab P271_01G
Regarding B39, the He/Con_3a stood at 113%.

B40: GpH7-A5/GpH7-B3 variant K326_07I/GpL16-k0 (antibody, human IgG1, kappa)
heavy 1: not shown
heavy 2: not shown
light: B1 light
notes: one H chain altered; also called He Ab K326_07I
Take B40: the He/Con_3a was 139%.

B41: GpH7-A5/GpH7-B3 variant S324_16H/GpL16-k0 (antibody, human IgG1, kappa)
heavy 1: not shown
heavy 2: not shown
light: B1 light
notes: one H chain altered; also called He Ab S324_16H
B41 showed a He/Con_3a of 104%.

B42: GpH7-A5/GpH7-B3 variant L234_20W/GpL16-k0 (antibody, human IgG1, kappa)
heavy 1: not shown
heavy 2: not shown
light: B1 light
notes: one H chain altered; also called He Ab L234_20W
In turn, B42 displayed a He/Con_3a of 107%.

B43: GpH7-A5/GpH7-B3 variant S298_14T/GpL16-k0 (antibody, human IgG1, kappa)
heavy 1: not shown
heavy 2: not shown
light: B1 light
notes: one H chain altered; also called He Ab S298_14T
Take B43: the He/Con_3a stood at 113%.

B44: GpH7-A5/GpH7-B3 variant E333_09D/GpL16-k0 (antibody, human IgG1, kappa)
heavy 1: not shown
heavy 2: not shown
light: B1 light
notes: one H chain altered; also called He Ab E333_09D
B44 returned a He/Con_3a of 112%.

B45: GpH7-A5/GpH7-B3 variant L234_09D/GpL16-k0 (antibody, human IgG1, kappa)
heavy 1: not shown
heavy 2: not shown
light: B1 light
notes: one H chain altered; also called He Ab L234_09D
Take B45: the He/Con_3a worked out at 117%.

B46: GpH7-A5/GpH7-B3 variant S337_18N/GpL16-k0 (antibody, human IgG1, kappa)
heavy 1: not shown
heavy 2: not shown
light: B1 light
notes: one H chain altered; also called He Ab S337_18N
B46 gave a He/Con_3a of 104%.

B47: GpH7-A5/GpH7-B3 variant S267_09D/GpL16-k0 (antibody, human IgG1, kappa)
heavy 1: not shown
heavy 2: not shown
light: B1 light
notes: one H chain altered; also called He Ab S267_09D
Turning to B47, the He/Con_3a worked out at 181%.
